Patent US20090253630A1

Biological target: PTHR-emGFP expressed in transfected HEK 293 cells
Test: cell-based or functional assay

For “PTH(1-38) (from UniProt P01270 32-69) (peptide)”, the PTHR1 internalization at 20 min, 100 nM compound, percent of vehicle only control (baseline=100%) (% of vehicle only control) was 166, the PTHR1 internalization at 40 min, 100 nM compound, percent of vehicle only control (baseline=100%) (% of vehicle only control) was 177 and the PTHR1 internalization at 60 min, 100 nM compound, percent of vehicle only control (baseline=100%) (% of vehicle only control) was 224. The PTHR1 internalization at 180 min, 100 nM compound, percent of vehicle only control (baseline=100%) (% of vehicle only control) was 175.
